Assay results as given in patent US10272135B2, “Apolipoprotein O and fragments thereof for inducing apoptosis in a cancerous cell” (INSERM (INSTITUT NATIONAL DE LA SANTÉ ET DE LA RECHERCHE …, priority 2014, dated 2019).

Test system: H9c2 cardiac myoblasts
Assay: Measurement of O2 consumption (Oroboros Oxygraph-2k) in cardiac myoblasts
Assay type: cell-based
Source text: After ethical committee approval, all patients in this study gave written consent for sample collection and molecular analysis prior to inclusion. Patients were carefully selected by physicians from the Department of Cardiology, Toulouse University Hospital, prior to coronary by-pass surgery. Bioinformatics. Microarray expression data from human heart samples were downloaded from the GEO repository (GSE1145). This series consisted of 107 myocardial samples collected from patients undergoing cardiac transplantation whose failure arises from different etiologies (e.g. idiopathic dilated cardiomyopathy, ischemic cardiomyopathy, valvular cardiomyopathy, and hypertrophic cardiomyopathy) and from “normal” organ donors whose hearts cannot be used for transplants. Arrays were intensity normalized and hierarchical clustering (average group linkage, Pearson correlation, threshold r=0.8) was applied to identify groups of co-expressed genes. ApoO expression levels were plotted for the 107 human hearts tested and used to define relevant molecular pathways using both Toppgene and Ingenuity Pathway Analysis (Ingenuity systems, Redwood City, Calif., USA). ApoO subcellular localization was predicted using Mitopred, mitoprot and YLoc. Animals: All animal Studies followed the INSERM Institute Animal Facility guidelines and were approved by the animal care committees of the INSERM I2MC UMR 1048. All animal procedures were performed according to the guidelines of the French Ministry of Agriculture. Animals were housed at the Toulouse I2MC animal facility in a room lit 12 h per day (6 AM-6 PM) at an ambient temperature of 22+/−1° C. Construction of ApoO Expression Vectors To overexpress human ApoO (pTT-ApoO), the ApoO coding sequence was amplified using primers hApoO5BamPTT (SEQ ID NO: 2) and hApoO3BamPTT (SEQ ID NO: 3) and cloned into the BamH1 site of pTT expression vector. pSNAP-ApoO was generated by PCR amplification of pTT-ApoO using primers SnapApoEcorV-F (SEQ ID NO: 4) and SnapApoEcorV-R (SEQ ID NO: 5) and cloned into the EcoRV site of pSNAP-Tag® (Ozyme, Saint-Quentin-en-Yvelines, France). pGEX2T-ApoO was constructed by PCR amplification of pTT-ApoO using hApoOpGEX1FBam (SEQ ID NO: 6) and hApoOpGEX1RSma (SEQ ID NO: 7) and cloned into the Bam HI/Sma I site of pGEX2T (Promega, Charbonnières-les-Bains). All primers used in this work were synthesized by Eurogentec France (Angers). All restriction enzymes used were from New England Biolabs (Ozyme, Saint-Quentin-en-Yvelines). All ApoO sequences within the expression vectors were verified by DNA double strand sequencing using ABI PRISM®BigDye™ Terminator version 3.1 Ready reaction cycle sequencing kit (Life Technologies SAS, Villebon sur Yvette) and loaded on an ABI 3130XL DNA sequencing instrument (Life Technologies SAS, Villebon sur Yvette). Cell Culture and Tranfection of H9C2 Cardic Myoblasts H9c2 were obtained from the European Collection of Cell Cultures (Salisbury, England). H9c2 cells were cultured in Dulbecco's modified Eagle medium (Life Technologies SAS, Villebon sur Yvette) adjusted to contain 1.5 g/liter sodium bicarbonate and supplemented with antibiotic-antimycotic solution (Life Technologies SAS, Villebon sur Yvette) and 10% fetal bovine serum (FBS, AbCys s.a., Paris). Cells were plated on 10-cm diameter tissue culture dish and grown in a 5% CO2 incubator at 37° C. with saturating humidity with medium changes every 2 days. […]

B1: ApoO: 198-amino acid apolipoprotein, SEQ ID NO: 1; tested by overexpression from expression vectors or transgene (protein, listed as Homo sapiens)
chain: MFKVIQRSVGPASLSLLTFKVYAAPKKDSPPKNSVKVDELSLYSVPEGQSKYVEEARSQLEESISQLRHYCEPYTTWCQETYSQTKPKMQSLVQWGLDSYDYLQNAPPGFFPRLGVIGFAGLIGLLLARGSKIKKLVYPPGFMGLAASLYYPQQAIVFAQVSGERLYDWGLRGYIVIEDLWKENFQKPGNVKNSPGTK
Question: What does the source list for B1?
Answer: basal oxygen consumption (ApoO cells vs control cardiac myoblasts (FIG. 4A)): two-fold increase; respiration coupling (RC) (ApoO cells vs control, CCCP / oligomycin oxygen consumption (FIG. 4C)): decreases
